Earlier results, collected in publication PMC3462298.

Columns and labels:
[1] = biological target: TRTK-12 (UniProt P52907); assay: fluorescence competition
[2] = biological target: TAMRA-TRTK-12 (CapZ peptide) (Homo sapiens); assay: fluorescence polarization

For S100B (from UniProt P04631), the Kd [1] is listed as 2900 nM and the Kd [2] is listed as 1200 nM.
